From patent US20190127480A1 (Regeneron, published 2019)
Changes are numbered by the printed parent chain.

T1: soluble heterodimeric hCD3ε/δ.mFc protein (human)
T1 construct: also called soluble human CD3; soluble heterodimeric CD3 protein
T1 chain 1: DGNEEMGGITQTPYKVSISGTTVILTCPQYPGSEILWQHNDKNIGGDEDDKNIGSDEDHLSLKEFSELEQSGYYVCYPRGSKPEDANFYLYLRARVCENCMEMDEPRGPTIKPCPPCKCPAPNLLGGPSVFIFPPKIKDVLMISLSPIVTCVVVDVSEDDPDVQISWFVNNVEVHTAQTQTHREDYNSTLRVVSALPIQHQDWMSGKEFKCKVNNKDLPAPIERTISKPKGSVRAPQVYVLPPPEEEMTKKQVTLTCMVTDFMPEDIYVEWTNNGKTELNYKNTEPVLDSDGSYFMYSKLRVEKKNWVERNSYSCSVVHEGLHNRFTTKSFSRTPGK
T1 chain 2: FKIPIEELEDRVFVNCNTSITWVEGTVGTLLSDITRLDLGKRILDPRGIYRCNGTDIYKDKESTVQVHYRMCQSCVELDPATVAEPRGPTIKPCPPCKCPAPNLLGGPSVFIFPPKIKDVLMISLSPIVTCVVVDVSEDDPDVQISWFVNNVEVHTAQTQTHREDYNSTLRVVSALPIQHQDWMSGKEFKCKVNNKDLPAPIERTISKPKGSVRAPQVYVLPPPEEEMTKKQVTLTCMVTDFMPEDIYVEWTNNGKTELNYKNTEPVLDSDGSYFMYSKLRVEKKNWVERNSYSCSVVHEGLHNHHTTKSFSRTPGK

B1: H1H7194P (antibody, human IgG1, V domains shown)
VH: EVQLVESGGGLVQPGRSLRLSCAASGFTFGDYTMHWVRQAPGKGLEWVSDISWNSGSKDYADSVKGRFTISRDNAKNSLYLQMNSLRTEDTAFYYCAKDSRGYGLYYHLGLDVWGQGTTVTVSS
VL: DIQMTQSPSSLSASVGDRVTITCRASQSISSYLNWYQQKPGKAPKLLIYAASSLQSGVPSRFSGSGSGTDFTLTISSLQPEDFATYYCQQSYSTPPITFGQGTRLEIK
notes: Monovalent 1-arm format: second Fab removed, only the Fc portion (CH2-CH3) expressed; human IgG1 Fc; tied by the numerical identifier; also called H1H7194B
B2: H1H7195P (antibody, human IgG1, V domains shown)
VH: B1 VH with G30A, K58I, D59A, L105H, Y107K, H108Y
VL: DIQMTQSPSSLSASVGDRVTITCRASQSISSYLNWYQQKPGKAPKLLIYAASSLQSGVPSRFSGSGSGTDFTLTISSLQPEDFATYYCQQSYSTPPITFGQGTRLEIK
notes: Monovalent 1-arm format: second Fab removed, only the Fc portion (CH2-CH3) expressed; human IgG1 Fc; tied by the numerical identifier; also called H1H7195B
B3: H1H7258P (antibody, human IgG1, V domains shown)
VH: QVQLVESGGGLVQPGRSLRLSCAASGFTFDDYTMHWVRQGPGKGLEWVSDIGWNSNTIGYADSVKGRFTISRDNARNSLYLQMNSLRPEDTALYYCVKDKSGYGKFQYGLDVWGQGTTVTVSS
VL: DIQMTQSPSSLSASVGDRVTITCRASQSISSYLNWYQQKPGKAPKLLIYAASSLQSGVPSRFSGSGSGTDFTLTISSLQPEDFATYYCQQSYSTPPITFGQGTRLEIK
notes: Monovalent 1-arm format: second Fab removed, only the Fc portion (CH2-CH3) expressed; human IgG1 Fc; tied by the numerical identifier; also called H1H7258B
B4: H1H7196P (antibody, human IgG1, V domains shown)
VH: EVQLVESGGGMVQPGRSLRLSCAASGFPFNDYTMHWVRQVPGRGLEWVSDISWNSGSKGYADSVKGRFIISRDNAKNSLYLQMNSLRVEDTALYYCVKDGSGYGRFHYYAMDVWGQGTTVTVSS
VL: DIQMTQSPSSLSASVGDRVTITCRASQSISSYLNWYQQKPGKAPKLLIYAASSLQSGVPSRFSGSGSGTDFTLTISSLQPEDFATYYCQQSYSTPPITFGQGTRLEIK
notes: Monovalent 1-arm format: second Fab removed, only the Fc portion (CH2-CH3) expressed; human IgG1 Fc; tied by the numerical identifier; also called H1H7196B
B5: BSPSMA/CD3-1200 (bispecific antibody, IgG4, V domains shown)
VH 1: QVQLVESGGGVVQPGRSLRLSCAASGFTFSSYGMHWVRQAPGKGLEWVAVISYAGNNKYYADSVKGRFTVSRDNSKKTLYLQMNSLRSEDTAVYYCAKDSYYDFLTDPDVLDIWGQGTMVTVSS
VH 2: EVQLVESGGGLVQPGRSLRLSCAASGFTFDDYSMHWVRQAPGKGLEWVSGISWNSGSIGYADSVKGRFTISRDNAKNSLYLQMNSLRAEDTALYYCAKDGSGYGKFYHYGLDVWGQGTTVTVSS
VL: DIQMTQSPSSLSASVGDSVTITCRASQSINNYLNWYQQKPGKAPKLLIYTASSLLSGVPSRFSGSGSGTDFTLTISGLHPEDFATYFCQQSFSTPPITFGQGTRLDIK
notes: modified (chimeric) IgG4 Fc domain; also called PSMA-VH-11810 x CD3-VH-G12
B6: BSPSMA/CD3-2100 (bispecific antibody, IgG4, V domains shown)
VH 1: B5 VH 1
VH 2: B5 VH 2 with I58K, H108Y, L111M
VL: B5 VL
notes: modified (chimeric) IgG4 Fc domain; also called PSMA-VH-11810 x CD3-VH-G21
B7: BSPSMA/CD3-1900 (bispecific antibody, IgG4, V domains shown)
VH 1: B5 VH 1
VH 2: B5 VH 2 with L111M
VL: B5 VL
notes: modified (chimeric) IgG4 Fc domain; also called PSMA-VH-11810 x CD3-VH-G19
B8: BSPSMA/CD3-1500 (bispecific antibody, IgG4, V domains shown)
VH 1: B5 VH 1
VH 2: B5 VH 2 with I58K, H108Y
VL: B5 VL
notes: modified (chimeric) IgG4 Fc domain; also called PSMA-VH-11810 x CD3-VH-G15
B9: BSPSMA/CD3-1600 (bispecific antibody, IgG4, V domains shown)
VH 1: B5 VH 1
VH 2: B5 VH 2 with I58K, L111M
VL: B5 VL
notes: modified (chimeric) IgG4 Fc domain; also called PSMA-VH-11810 x CD3-VH-G16
B10: H1H5771P (antibody, human IgG1, V domains shown)
VH: EVQLVESGGGLVQPGRSLRLSCAASGFSFDNYAMHWVRQAPGQGLEWVSGISWNSGSRDYADSVKGRFTISRDNARNSLFLQMNSLSNEDTAMYYCAKDKSGYGSYFYGMDVWGQGTTVTVSS
VL: EIVLTQSPGTLSLSPGDRATLSCRASQSIRNIYLAWYQQKPGQAPRLLIHGASTRATGIPDRFSGSGSGTDFTLTISRLEPEDFAVYYCQQRVSLPYTFGQGTKLEIK
B11: H1H5772S (antibody, human IgG1, V domains shown)
VH: B10 VH with E1Q, N31D, S55G, S87F, N88T, M93L
VL: B10 VL with T10I, L95S
notes: H1H: human IgG1 Fc; also called H1H5772P
B12: H1H5764P (antibody, human IgG1, V domains shown)
VH: QVQLVESGGGVVQPGRSLRLSCAASGFTFRSFGMHWVRQAPGKGLEWVAVISYDGNYKYYADSVKGRFTISRDNSKNTLYLQMNSLRAEDTAVHYCAKGAMVRGVPYNFYYGMDVWGQGTTVTVSS
VL: DIQMTQSPSSLSASVGDRVTITCRASQVIRNDLGWYQQKPGKAPKRLIYAASSLQSGIPSRFSGSGSGTEFTLTISSLQPEDFATYYCLQHNSYPYTFGQGTKLEIK
notes: H1H: human IgG1 Fc
B13: H1H5769P (antibody, human IgG1, V domains shown)
VH: EVQLVESGGGLVQPGRSLRLSCAASGFTFDDYTMHWVRQVPGKGLEWISGISWNSGSMDYADSVKGRFTISRDNARNSLFLQMNSVRTEDTALYYCAKDKSGYGSFYYGMDVWGQGTTVTVSS
VL: B10 VL with I29V, R30S, N31S, V93A, S94H, L95S
B14: H1H5761P (antibody, human IgG1, V domains shown)
VH: B12 VH with R30S, F32Y, N56S, Y57N, N74Y, H94F, F109Y
VL: B12 VL with V28G, Y36F, I58V

target: T2, human CD3 expressed on cells (Jurkat cells; human T-cells of PBMC) (human, UniProt P09693 23-182; P20963 22-164); assay: cell-based or functional assay
T2 sequence (chain, as listed by the source, chain 1 of 4): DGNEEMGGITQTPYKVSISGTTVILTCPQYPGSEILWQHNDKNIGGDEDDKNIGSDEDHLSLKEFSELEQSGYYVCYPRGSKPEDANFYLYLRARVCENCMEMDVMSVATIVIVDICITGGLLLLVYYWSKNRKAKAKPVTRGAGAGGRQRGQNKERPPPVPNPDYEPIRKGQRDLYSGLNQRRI
T2 sequence (chain, as listed by the source, chain 2 of 4): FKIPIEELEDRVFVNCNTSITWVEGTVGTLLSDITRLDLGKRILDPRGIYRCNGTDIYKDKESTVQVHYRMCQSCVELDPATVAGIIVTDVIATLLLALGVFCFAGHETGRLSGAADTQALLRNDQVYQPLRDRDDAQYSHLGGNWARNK
T2 sequence (P09693 23-182, chain 3 of 4): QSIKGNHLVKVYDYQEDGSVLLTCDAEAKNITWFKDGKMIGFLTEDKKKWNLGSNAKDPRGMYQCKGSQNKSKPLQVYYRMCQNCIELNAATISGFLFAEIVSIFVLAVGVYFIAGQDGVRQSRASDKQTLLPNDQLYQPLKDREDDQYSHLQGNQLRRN
T2 sequence (P20963 22-164, chain 4 of 4): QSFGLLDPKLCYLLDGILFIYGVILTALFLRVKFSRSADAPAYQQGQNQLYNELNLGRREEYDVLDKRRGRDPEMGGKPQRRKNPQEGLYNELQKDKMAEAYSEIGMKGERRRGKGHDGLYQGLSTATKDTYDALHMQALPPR

EC50 [M] hPBMC Proliferation [M] | Binder
2.37e-12 | B1
2.42e-12 | B2
2.17e-12 | B3
1.27e-12 | B4

target: T3, human PSMA on PSMA-expressing cells (human, UniProt Q04609 1-750); assay: FACS on B16F10.9/PSMA cells
T3 construct: Cell line is named under assay or readout in each row; also called B16F10.9/hPSMA; B16F10.9/PSMA
T3 sequence (Q04609 whole entry): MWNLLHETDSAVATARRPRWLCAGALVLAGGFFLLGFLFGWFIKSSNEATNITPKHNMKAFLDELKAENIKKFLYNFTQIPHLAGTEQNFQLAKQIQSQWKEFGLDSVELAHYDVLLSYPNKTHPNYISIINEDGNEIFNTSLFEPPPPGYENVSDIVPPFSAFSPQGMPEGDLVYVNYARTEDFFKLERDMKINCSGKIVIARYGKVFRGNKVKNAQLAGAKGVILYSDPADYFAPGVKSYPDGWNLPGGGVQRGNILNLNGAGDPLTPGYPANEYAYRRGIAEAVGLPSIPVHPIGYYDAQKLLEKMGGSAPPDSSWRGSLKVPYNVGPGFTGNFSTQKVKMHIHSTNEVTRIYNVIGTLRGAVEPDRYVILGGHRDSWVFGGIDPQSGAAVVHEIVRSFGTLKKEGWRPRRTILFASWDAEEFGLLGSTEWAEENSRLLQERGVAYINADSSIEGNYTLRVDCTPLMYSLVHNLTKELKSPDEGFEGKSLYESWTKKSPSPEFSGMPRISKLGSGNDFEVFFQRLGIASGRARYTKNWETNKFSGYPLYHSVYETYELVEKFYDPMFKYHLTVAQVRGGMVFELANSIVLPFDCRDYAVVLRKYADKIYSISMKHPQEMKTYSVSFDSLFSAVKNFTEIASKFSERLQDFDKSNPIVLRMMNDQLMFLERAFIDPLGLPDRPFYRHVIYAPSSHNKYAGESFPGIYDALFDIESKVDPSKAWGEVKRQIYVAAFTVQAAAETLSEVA
Experimental: (§1) Briefly, 2×10⁵ cells/well of human CD3-expressing Jurkat, cynomolgus T, or human PSMA-specific expressing cells were incubated with a serial dilution of bispecific antibodies for 30 min at 4° C. After incubation, cells were washed and a goat F(ab′)₂ anti-human Fcγ PE labeled secondary (Jackson Immunolabs) was added to the cells for an additional 30 min. Next, cells were washed, re-suspended in cold PBS+1% BSA and analyzed via flow cytometry on a BD FACS Canto II.
(§2) For FACS analysis, cells were gated by forward scatter height vs. forward scatter area for single events selection, followed by side and forward scatters. The EC₅₀ for cell binding titration was determined using Prism software. Values were calculated using 4-parameter non-linear regression analysis.

EC50 [nM] | Binder
1.16 | B5
1.14 | B6
1.35 | B7
1.21 | B8
1.03 | B9

target: T4, human CD3 on CD3-expressing cells (Jurkat, human T cells) (human, UniProt P07766 23-207; P04234 22-171); assay: FACS on Jurkat cells
T4 construct: On cells CD3 stands within the T cell receptor complex (also gamma and zeta chains); also called human CD3 expressing Jurkat cells
T4 sequence (P07766 23-207 limits assumed, chain 1 of 2): as the sequence (chain, as listed by the source, chain 1 of 4) above
T4 sequence (P04234 22-171 limits assumed, chain 2 of 2): as the sequence (chain, as listed by the source, chain 2 of 4) above
Experimental: as §1, §2

EC50 [nM] | Binder
47.2 | B5
106 | B6
60.7 | B7
93 | B8
56.8 | B9

target: T2, human CD3 expressed on cells (Jurkat …); assay: cell-based or functional assay; remark: another data set of the same source

EC50 [M] hPBMC Proliferation [M] | Binder
6.35e-12 | B10
4.42e-12 | B11
3.27e-13 | B12

target: T2, human CD3 expressed on cells (Jurkat …); assay: FACS titration on Jurkat cells (CD3+ human T-cell line)
Experimental: (§3) FACS data was acquired using the following protocol: Cells at 2×10⁵ per well were incubated with serially diluted antibodies for 30 min on ice. Post incubation, cells were washed and secondary antibody was added and incubated for an additional 30 minutes. After incubation, cells were washed, re-suspended in cold PBS containing 1% BSA and analyzed by flow cytometry with viable Jurkat cells gated by side and forward scatters. The EC₅₀s for cell binding titration were determined using Prism software with values calculated using a 4-parameter non-linear regression analysis.

EC50 [nM] | Binder
0.664 | B11
0.88 | B12

target: T5, cynomolgus monkey CD3 expressed on monkey T-cells (PBMCs) (cynomolgus monkey, UniProt Q95LI5 22-198; Q95LI8 22-171); assay: cell-based or functional assay
T5 sequence (Q95LI5 22-198, chain 1 of 2): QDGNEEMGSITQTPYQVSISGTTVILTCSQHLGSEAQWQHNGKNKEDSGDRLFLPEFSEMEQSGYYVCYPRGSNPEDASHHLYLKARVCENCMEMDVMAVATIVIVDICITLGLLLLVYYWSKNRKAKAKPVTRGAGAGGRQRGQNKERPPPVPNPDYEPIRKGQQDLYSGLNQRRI
T5 sequence (Q95LI8 22-171, chain 2 of 2): as the sequence (chain, as listed by the source, chain 2 of 4) above, with I5V, N15K, I20V, S32T, D33N, I34N, T64A, S74N, V83L, H141R counted along it

EC50 [M] mfPBMC Proliferation [M] | Binder
8.33e-13 | B13
2.74e-12 | B10
1.47e-12 | B11
2.81e-09 | B14
4.06e-10 | B12

target: T2, human CD3 expressed on cells (Jurkat …); assay: FACS titration on Jurkat cells, monovalent 1-arm antibody
Experimental: as §3

EC50 [nM] | Binder
1.5 | B1
0.342 | B2
1.07 | B3
34.4 | B4

target: T2, human CD3 expressed on cells (Jurkat …); assay: cell-based or functional assay; remark: another data set of the same source

Binder | U937 Cytotoxicity Human T-cells [pM]
B11 | 0.689

target: T2, human CD3 expressed on cells (Jurkat …); assay: cell-based or functional assay; remark: another data set of the same source

Binder | U937 Cytotoxicity Human T-cells [pM]
B1 | 4.71
B2 | 6.1
B3 | 15.3
B4 | 19.6

target: T5, cynomolgus monkey CD3 expressed on …; assay: cell-based or functional assay; remark: another data set of the same source

EC50 [M] mfPBMC Proliferation [M] | Binder
4.84e-12 | B1
1.36e-12 | B2
1.11e-11 | B3
1.4e-08 | B4

Target: T1, soluble heterodimeric hCD3ε/δ.mFc …
Assay: SPR MASS-1, 37 C, antigen-capture (hCD3ε/δ.mFc captured), antibody injected
Experimental: Measurements were conducted on a Sierra Sensors MASS-1 instrument.
In the antigen-capture format, the MASS-1 high-density amine sensor surface was derivatized with a goat anti-mouse IgG2a polyclonal antibody (Southern Biotech). Soluble heterodimeric CD3 protein was captured and the respective antibodies were injected over the captured antigen.
Kinetic association (kₐ) and dissociation (kd) rate constants were determined by processing and fitting the data to a 1:1 binding model using MASS-1 AnalyserR2 curve fitting software. Binding dissociation equilibrium constants (KD) and dissociative half-lives (t_{1/2}) were calculated from the kinetic rate constants as: KD (M)=kd/kₐ; and t_{1/2} (min)=(ln 2/(60*kd).

Kd [nM] | T½ [min] | koff [s⁻¹] | kon [M⁻¹ s⁻¹] | Binder
64.2 | 4.7 | 0.00247 | 38500 | B5
77.5 | 4.9 | 0.00234 | 30200 | B6
115 | 2.3 | 0.00509 | 44300 | B7
82.9 | 1.9 | 0.00611 | 73600 | B8
37.8 | 4.7 | 0.00243 | 64300 | B9
